# Molecular target: Echovirus 11 (E11) strain 18-2135 full virus particle (capsid of VP1-4) (echovirus 11 (strain 18-2135))
# Test: cryo-EM structure
substance,measurement,value
"Decay-accelerating factor (DAF) full-length ectodomain, short consensus repeats SCR 1-4 (from UniProt P08174 35-285) (receptor)",DAF occupancy,31.5%
same,stoichiometry N (DAF molecules per particle),20

# Reference: paper PMC9781616
